Results from paper PMC3597591.

Molecular target: 14-3-3η (UniProt P68511)
Test: GST pull-down from cell lysate
Conditions: reference: lysate with phosphatase inhibitors (PhosStop); sites S2845

**Q.** “Bassoon Bsn28, 2715-3013 (from UniProt O88778) lysate treated with alkaline phosphatase” was tested. Which “binding against the reference” value did it give?
**A.** weaker
